According to the nanobody polyreactivity screen of Harvey et al. (2022):

experiment: yeast display, Sf9 membrane polyspecificity reagent, FACS + sequencing; frameworks hold sequencing errors
Procedure, shortened: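 Genes from sorted yeast were amplified by colony PCR, read by MiSeq 2 × 250 sequencing and filtered on CDR length. These cells carried a synthetic nanobody library in Saccharomyces cerevisiae BJ5465 and were sorted by FACS into low and high (top ~1%) gates on anti-HA and streptavidin fluorescence. Polyreactivity is labelled according to the gate of origin.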

Row | Sequence | polyreactivity (PSR sort gate)
1 | QVQLVESGGGLVQAGGSLRLSCAASGSIFFSYAMGWYRQAPGKERELVAAIDYSGGGTYYADSVKGRFTISRDNAKNTVYLQMNSLKPEDTAVYYCNSDTEVWADTFISYRALNYWGQGTQVTVSS | low polyreactivity
2 | QVQLVESGGGLVQAGGSLRLSCAASGRTFYYNTMGWYRQAPWKEWELVAAISWRTGSTYYADSVKGRFSISRDNAKNTVYLQMKSLKPEDTAVYYCAAVLFGYPRTIGTWYDRYYYWGQGTQVTVSS | high polyreactivity
3 | QVQLVESAGGLVQAGGSLSLSCAATGFIFYYNTMGWYRQAPGKERELVAAINSGGSTYYADSVKGRFTISRDNAKNTVYLQMNSLKPEDTAVYYCAKRYAVSSRYYYWGQGTQVTVSS | high polyreactivity
4 | QVQLVESGGGLVQGGGSLRLSCAASGSIFTYNAIRSYRQAPGKERELVAAINTSGSTNYADSVKGRFTLSRDNAKNTVYLQMNSVKPEVTAVYYCAAGIVVTGYDYWGHGTQVTVSS | low polyreactivity
5 | QVQLVESGGCLFQAGGSLRLSCAASGSTFYWYTMGWYRQAHGKERELVSTMTTVGRTNYADSVKGRFTISRDNAKNTVYLQMKSLKPEVTAVYYCAASKARWPRGGCKYYYWRQGTQVTVSS | high polyreactivity
6 | QVQLVESGGGLVQAGGSLRLSCAASGSTLDGNAMGWYRQAPGKERELVAAISVSGGSTYYADSVKGRFTISRDNAKNTVYLQMNSLKPEDPAVYYCSTEWRPRYYGTEPFDSWGQGTQVTVSS | high polyreactivity
7 | QVQLVESGGGLVQAGGSLRLSCAASGRTFDDYAMGWDRQAPGKERELVAAITQNGRDTYADSVKGRFTISRDNSKKYRLFTDVQPVTGRYRGLLLRCVRYEVNLYDYWGQGTQVTVST | low polyreactivity
8 | QVQLVESGGGLVQAGGSLRLSCAASGRIIGRYVRGWYRQAPGKERELVAAITRGGSTNYADSVKGRYTISRDNAKNTVYLQMNSLKPEDTAVYYCARAYSTVNRYSMYYWGQGTQVTVSS | high polyreactivity
9 | QVQLEESGGGLVQAGGSLRLSCAASGRTFKINAMGWYRQAPGKERELVAAIRRRGGSTYYADSVKGRFTISRDNAKNTVYLQMNSLKPEDTAVYYCAKTSWPYRVPSDSVAYDYWGQGTQVTVSS | low polyreactivity
10 | QVQLVESGGGLVQAGGSLRLICAASGSIFTSNAMGWYRQAPGKERELVAAITSDGAITYADSVKGRFTISRDNAKNTVYLQMNSLKPEDTAVYYCATEIEYYVGSVADMGYWGQGTQVTVSS | low polyreactivity
11 | QVQLVESGGGLVQAGGRLRLSCAASGSIFINNTMGWYRQAPGKERELVAAISITGGSTYYADSVKGRFTISRDNAKNTVYLQMNSLKPEDTAVYYCAADPLQLYDYNYWGQCTQVTVSS | low polyreactivity
12 | QVQLVESGGGLVQAGGSLRLSCAASGFTFAPYALGWYRQAPGKERELVAAIRRSGGSTYYADSVKGRFTISRDNAKNTVYLQMNSLKPEDTAVYYCAASTYQNGYGYWGQGTQVTVSS | high polyreactivity
13 | QVQLVESGGGLVQAGGSLRLSCAASGRTFSRYTMGWYRQAPGKERELVARISQRGGSTYYADSVKGRFTISRDYAKNTVYLQMNSLKPEDTAVYYCAKKTYSPYGGYDSWGQGTQVTVSS | high polyreactivity
14 | QVQLVESGGGLVQAGGSLRLSCAASGSTFPSYAMGWYRQAPGKERELVAAITNGGSTTYADSVKGRFTISRDNAKNTVYIQMNSLKPEDTAVYYCAARYYYYYYYIRRDYWGQGTQVTVSS | low polyreactivity
15 | QVQLVESGGGLVQAGGSLRLSCAASGITFVSYTMGWYRQAPGKERELVAAISTSGGSTYYADSVKGRFTISRDNAKNTVYLQMNSLKPEDTAVYYCAARQVRTIRKYGYWGQGTQVTVSS | high polyreactivity
16 | QVQLVESGGGLVQAGGSLRLSCAASGSTFRYYAMGWYRQAPGKERELVAAITTSGSRTYYADSVKGRFTISRDNAKNTVYLQMNSLKPEDTAVYYCAKDGWRYSQSLDWYRFGYWGQGTQVTVSS | high polyreactivity
17 | QVQLVESGGGLVQAGGSLRLSCAASGFISTINVMGCYRQAPGKERELVAAITYIDGSTFYADSVKGRFTISRDNAKNTVYFQMNSLKPEDTAVYYCASDLYLWGAVFLYVRSTGLDYWGQGTQVTVSS | low polyreactivity
